# Source: a protein production outcome set (Wang et al. 2014)
# Experiment: label from the status in PepcDB records
sequence,measurement,value
MSLASLIGLAVCTGNAFSPALAAEAKQPNLVIIMADDLGYGDLATYGHQIVKTPNIDRLAQEGVKFTDYYAPAPLSSPSRAGLLTGRMPFRTGIRSWIPSGKDVALGRNELTIANLLKAQGYDTAMMGKLHLNAGGDRTDQPQAQDMGFDYSLANTAGFVTDATLDNAKERPRYGMVYPTGWLRNGQPTPRADKMSGEYVSSEVVNWLDNKKDSKPFFLYVAFTEVHSPLASPKKYLDMYSQYMSAYQKQHPDLFYGDWADKPWRGVGEYYANISYLDAQVGKVLDKIKAMGEEDNTIVIFTSDNGPVTREARKVYELNLAGETDGLRGRKDNLWEGGIRVPAIIKYGKHLPQGMVSDTPVYGLDWMPTLAKMMNFKLPTDRTFDGESLVPVLEQKALKREKPLIFGIDMPFQDDPTDEWAIRDGDWKMIIDRNNKPKYLYNLKSDRYETLNLIGKKPDIEKQMYGKFLKYKTDIDNDSLMKARGDKPEAVTWGEGHHHHHH,protein production,not failed
KSLTLVLHRDSGSLGFNIIGGRPSVDNHDGSSSEGIFVSKIVDSGPAAKEGGLQIHDRIIEVNGRDLSRATHDQAVEAFKTAKEPIVVQVLRRT,protein production,not failed
MSQDVSAQLQFRRSTMHWLRVARTAALALLLAPAVAPARAWLPPPGHVQMPLWPTVVPDALPHPRPESVGTGEGKRPWTKVGDVSRPTITFYAPKGQNTGAAAVVFPGGGYQVLAMDLEGTDICDWLSGRGITCVLLKYRVPNSGPTWTNGGRYYPKVQTALQDAQRALGLVRQHADDWGVDPHRVGVIGFSAGGHLVAAMSTHFTRRTYPSVDAADAQSCRPDFAIAVYPGHLWAHEDEDRAKRDPTHLPLRPDITVTADTPPTFLLQAEDDEVDGVSQSLAYYVALKQAGVPAEMHLYAEGGHAFGLRAGKLPIAQWPHLVETWLGTIGMLGTASAP,protein production,failed
MKQPNYYQDVKQFHQTFHHPGADQPTAIPLDRGVKRATWTAEEAVVEFLHQSSQNETEFLAAIETFKAGLDQAVKKSLKETYPVTEVERLVGQGDALTDALYFIMGSFVEAGLEPGPLFEIVQQANMAKLGPDGQPIFRESDQKVMKPDGWLPPEPQLEAEVVRQMKEKA,protein production,not failed
MKIAVMGYGTIGSGVVEVLEINKEKIAKRAGEPIEVKYVLDLREFPGTPIENKIVHDYKVIAEDPEIGIVVETMGGVEPAFTFVKAMLEAGKQVATSNKNLVAAKGAELIKVARDHGVNFQFEASVGGGIPIIRPLNKCLTADEIEEITGILNGTTNYMLTKMTEEGADFDEVLKDAQDKGYAEKDPTADIEGYDPCRKIAILTSLVAGQQVDFEDIHCEGITKITPEDIKYAKAMHRAIKLLASSRKVGDSYTCLVAPYMIDDTHPLSGVNGVFNGVFLRGNVLGDAMFYGSGAGKLPTASAVVADVVDMTKHQNTNIYIDWKPEKLTLVSYDDSVNSFFVRTDSPKSEVEAVFGHVDYIEDVVDGEYAFTTGDMTEKDFADKASKINVINRIRL,protein production,failed
MALDQSLVGRSYPPTAPYEVGREKIREFAEAVGDANPAYTDAEAAKALGHPDVIAPPTFVFSITFKAAGQVIEDPQLGLDYSRVVHGDQKFSYARPVRAGDRLTVTSTIEAIKSMAGNDILDIRGEVHDEAGEHVVTAWTKLVARAAEEALEHHHHHH,protein production,not failed
MTLTALNAISPIDGRYVNKTRALSPYFSEFALTYYRLMVEIKWFESLAANDTIPEVPALDNKARKFLSDLISNFNESEAEKIKEFEKQTNHDVKAVEYYLQDKFQENEQLKSCVAFIHFACTSEDINNLAYALMIKQAIAQVIQPTIAEIMGSITLLGKQHADVAMLSRTHGQPATPTTMGKELVNFVARLKRPQQQLAEVLIPAKFNGAVGNYNAHVAAYPEVDWRKHCANFVTSLGLSFNAYTTQIEPHDGIAEVSQIMVRINNILLDYTQDIWSYISLGYFKQKTIAEEVGSSTMPHKVNPIDFENAEGNLGLSNALFIHFANKLTQSRMQRDLSDSTVLRNLGVAFSYSLIAYHSVAKGNDKLQINKSALQKDLSENWEVLAEAIQTVMRRYNEPNAYEQLKELTRGQMIDAENLKKFIKTLSIPEEAKAELMKLTPETYTGLATQLVKAFS,protein production,not failed
SRVLSRMSGTIRHFQAITLALSRERDLERMLDGVLSHLVEAAGGDAGGVYLYDAEQALLRLAASCRGEHYPSELAVDESARQHLAATVTQALSLHERSLAVVLNDRSQALLGILVLQMGEEQAQERVGEAFRRFVEELSGVAAVAIETRQLVEAQQRLLDA,protein production,failed
MQRLLLANDLPGVGKVALATSIPIAAACQVETMLLPTVLLSSHTGGFPDVVIEDMTDLNQAYFEQWKNLNLELAGILSGYCRNPQQLSQLAMYAKHTETPLIVDPIMGDSGRLYTGFTSSYVEAMKELTQSAQLILPNITEASLLTGRNYLGDSYDIHDIEDLLEALAEQVSADIVLTGISFDDSQIGVAYFQQETGEITTYMSKKYPANFFGTGDILSTLLAVATIQQINLHQAIPLALDFIDKSLERTLALDRDLKFGISFEPFLAELQQAFQILKEKL,protein production,failed
MGERIIPKNMKPMNGMLLEHLARYYFSTPYASGRVLDIACGTGYGSVMVAKTRKTEVDQVLGVDFDADVIHYAKQNYYHPKVSFLVGDAMDPYLRNQIGTFDTILSFETIEHVKDDRLFIERMRQLLKKDGTLVLSTPFGQGRGKPSDEPFHYHQLTEEEFRSLFDSFSEKEVFYQRGVTIEPKRTNVHYAFGVAVCKLEHHHHHH,protein production,failed
MIEKKKNRSKLKREAILAAAKKAYQDDGVQNTSMDKLASLAQVSKRTVYNHFSSKEALVMELLSDLWQNSMADIDIQFSENVSIQDQLERLLLAELNVIGAQSYLDLAKVAFGHFFYKPDELQLQVEKMAEQETALSRWLQLMMDTKKLTIEDKHKAGVQLHSLLKGSAFWPQLVGMRAVLSSEEKEQLVTETADMFLSRYLKR,protein production,not failed
MKRKTLLMAALMGGCSLQGMAQQITPKDVAGDKEYNRVCREYELKGGDSMELLQAYLDKYPDSRHKNRVLSLIASAYFMEGKYKEAIALFRSCDLEALPDKERDDCAMRLATSYLKEDNLREAAVWFTLLKEVSPLYQDDAVYNLAYIDYVEKRYDKALKSFQSLQNDAVYAALVPYYIGEIYLVKGNYQQARTVAKAYLEQYPAKKDVPQMERIWGEACFGLNDYQAAIPPLERYRESVSHPQRKPLYELGMSYYYTGVYSKAAATLGEMASVHDALSQNAYLHMGLAYLNLKERNRARMAFEQAANFSFDPKVKEQALYNYALCIHETSYSPFAESVTVFERFLNEFPNSPYTERVNDYLIEVYMNTRSYEAALKSIAKIEHPGTRIMEAKQKILFRLGTQAFANARFQEALEFFNQSLAVGQYNQATKADAYFWRGESNYRLDRFPQAGNDYRLYLEFATSKNGQEYGLALYNLGYTYFKQKNYGNAGTWFTRFVDRGSINERTMQADAYNRIGDCNFYDRRFEQARQDYARAVEIDPSLGDYSLYQEAFVRGLQRDYNGKVQTLNRLISDYPESQYMDDALYEQGRAFVQMEDNANAIARFNILVKKFPESNVARRAANEIGLLYYQDDKYPEAIQAYKQVIAGYPGSEEARLAQRDLKSIYIDLNKVDEYANFASTIPGGANFDVNERDSLTYVAAERVYMRGEVAEARNSFTRYLQTFPEGAFSLNANYYIGLIDYNQKAYESAARHLDKVLEYPNNKYSEDAMLMGAEMAYTAKDYEKALHIYKQLKDKAASMERRRLAKTGMLRSAHMLGNEEEIIFAATDLLADTKLAPELSNEAHYYRAKAYLDAGKTDGAMEDLKVLAKDTRNVYGAEAKYKVAQIYFDGGQTDKAEQEVLNYIEVSTPHTYWLARSFVLLADVYMKLGRNLDAKQYLLSLKQNYQADDDIAGMIESRLEKLKTEN,protein production,failed
MIITLFVMVSGNKVKYEGSGKSGLWMSNLEKSDKTSIGPNYFLNLYWQGSKKEEKWTVVERITLYVDGEKYQDDNVDEYDLSEYTGDEMPGGGRMEDHISTFDYMPEDEVIGHDVLVKVEWRTGQKKQTEAIKLHKKPWYKKLEHHHHHH,protein production,failed
MMENQVNEQTVTSPENGSSATGYNSGIWDGLSVVALIGGAIASVVLPANPAAGVIPVAAGVGLHLFNRKQLEEHLLANQRATAAQIVQLVNQNQAHLQEYLQKFQGDIQTSLGQQQQAIAANQENLTKALAEKSLALQGKLEAFQAAAAQTHAGLDIKHQDLLAVVTELRTMEGCTQSLAAYPHAEAYYQRGLSHYRLEDWAEAVRDCTEAIRLRGDLAGAFHHRGMAYARLDNRKQATDDLRQAYKLYFDQGDLDSYEVARALHKQYYEGPVEDLELEPTPVMPPAEGVGHEAYIADPDREIKPLLAEESDTTAANLFG,protein production,failed
MSLPPSRPETLSIPEALHRAHAHWSAGQAAQAELLCQRVLAAWPGQADALHLLGLMAHAYGHLDLAIAHLRQACLAPRAPAAYSSNLAEMYRQKGLLAEAEDAARRAVAMDPALVSGWNNLGIVLQEAGKFAESLDCLERVILLQPDGAQAHNNLANTLRRLERLERAESHYRQALELDPAYAEAHSNLAFLLSAQGRHDEAAAAAQHAIELSPRLVDAYLNLAEAEMGRHRHEAALRVLDTLSTFAPQHPAALTARANVLKRVERLDEALAVARQAVVLAPRSAEAHHALAMALQTLGQTDEALPHFEQAARLPGAVAEEALVGRATLLMEAGRRDAARAAFDQALEQFPGSVQALAGRADARTFTAGDPDIAALEACLAEGERRSLRDRISAHFALGKAYLDLQDPARAFHHLDAGNRQKRSTFTYDGAASRRWMERIAEAFPPERHDPLHATGEPSALPVFIVGMPRSGTTLIEQIVSSHPQVMGAGELSALRLVVEGSGLFPDGMQRLAGEARGALFRQLGQAYLSRVAPLAQGRARLVDKMPSNFLYARLIPLILPGARIIHARRDPVDTCLSCYTKLFAGEQQFAYDQAELGALYRGYARLMAHWRAVLPPGCFIEVDYEAVVDDLEGEARRLIDFLDLPWNPACLHFHDNRRVVRTASVNQVRQPIYTTSKGRWQAYADYLGPLLEALGVEAP,protein production,failed
MGGCPVRKRRRNGSKEGNHHSTQPKRNKRNPIFQDSQDTEFSWSDNERSSSRINIPERASGPEGNLNQIVTEPDANFPQFLHEGLSKPVYVINWFMSFGPEIKLNTSQQGRNQAV,protein production,failed
MADHSLQRRLAAIVVADVVGYSRLMEADEAATLANLRELRSGVIEPAVMRHHGRIFKVMGDGFLIEFGSAVEAVAAALEMQRAATAVEASGDRRLLLRVGVNLGDVIDDGSDVLGDDVNVAARLQTQAAPGGICISANVHGEIDGKISDRFFDAGERYLKNLTRPVHVWHWPDALQSILPLPECPSIAVLPFTNMSGDEADAPFVDGLTEDLITDLSRTAGLFVIARNSVYVYKGKPVDVRLVAQELGVRYVLEGSARRAMGRVRINAQLVDTLAGQHLWADRFDRTVEDVFELQDEVNAKIVEALVGRLTIPTPRNRPKNFEAYDLCVRARLLTEESPQTEREAYMLLQRAVELEPSYAEALGLLAYNRWLAWTHFGEPEDPNRRMAATFAQKAVDLDPNDAGCRYVLGTILAYERRWEESEAAFAKALELDPNHADTWAAMSDMSVLDGRVADGLAQIEKALRLNPYPACWYLCHLGQAQYAARDYEAAAATLRRKDTYRTNSRKFLAATLAQLGHREEARRESELFLIAHPHFTIGHWLSSQPLRDASVRDHFVDGFRKAGLPEM,protein production,failed
MERRLCAILAADMAGYSRLMERNETDVLNRQKLYRRELIDPAIAQAGGQIVKTTGDGMLARFDTAQAALRCALEIQQAMQQREEDTPRKERIQYRIGINIGDIVLEDGDIFGDAVNVAARLEAISEPGAICVSDIVHQITQDRVSEPFTDLGLQKVKNITRPIRVWQWVPDADRDQSHDPQPSHVQH,protein production,not failed
MRKFIISFCCYVFFIFTLAAQDKAPHYTVIVSLDAFRWDYPAMYDTPNLNQMAREGVKATMLPSYPASTFPNHYTLATGLVPDHNGIINNTFWDVKRRRQYSMGDPATRNNPDYYLGEPIWITAQKQGVKTGNVYWVGSDIAIKGGYPTYYREYAEKPRLTFEQRVDSTIALLEKPEAERPRLVMLYFEEPDGVTHHHGPRSVEAAAIIHRMDSLVGMLRQGIASLPFGKDVNLIVTADHGMTEISDDRVVDMNKYLRPEWCEAVDGRTPTSIFTKPEYRDSVYNALKDVPHIHVWKKEEIPAELNYGSSDRIGDIVVAPELGWQFTDVPRALKGAHGYFPQSPDMQVMFRACGPDFKAGYESKGFVNVDIYPLLAHLLKITPEKTDGQFERIKDILKDVSFLEHHHHHH,protein production,failed
